From PMC10201364 (MicrobiologyOpen, 2023) come the findings set out here.

Data set [1] has as its system T1, Ah-BarR trunc (Acidianus hospitalis), ORF:d4ab5e4b.
T1 sequence: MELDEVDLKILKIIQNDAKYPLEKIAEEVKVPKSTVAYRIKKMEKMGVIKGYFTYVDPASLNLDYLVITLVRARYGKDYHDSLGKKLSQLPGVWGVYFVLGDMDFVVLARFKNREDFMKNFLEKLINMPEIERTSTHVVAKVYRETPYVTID
The experiment in a line: EMSA. As to conditions: 20 mM Tris-HCl pH 8.0, 50 mM NaCl, 0.4 mM EDTA, 0.1 mM DTT, 1 mM MgCl2, 12.5% glycerol, 25 ug/mL salmon sperm DNA, 25 min at 37 C (EMSA).

The test system of data set [2] is T2, Ah-BarR WT (Acidianus hospitalis), ORF:d4ab5e4b.
T2 sequence: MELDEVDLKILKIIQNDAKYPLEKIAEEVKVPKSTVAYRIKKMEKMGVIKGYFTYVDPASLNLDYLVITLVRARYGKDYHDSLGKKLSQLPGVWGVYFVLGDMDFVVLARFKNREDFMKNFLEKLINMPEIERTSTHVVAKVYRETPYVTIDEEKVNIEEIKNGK
The data set is described as follows: EMSA. As to conditions: 20 mM Tris-HCl pH 8.0, 50 mM NaCl, 0.4 mM EDTA, 0.1 mM DTT, 1 mM MgCl2, 12.5% glycerol, 25 ug/mL salmon sperm DNA, 25 min at 37 C (EMSA).

Data set [3] addresses Ah‐BarR M103N (P ah‐barR promoter, mKate2 reporter) (Acidianus hospitalis, UniProt F4B5V3, M103N). The experiment in a line: cell-based. As to conditions: BS1 M103N; 5 mM glutamine, 20 mg/L naringenin (Figure A7). It counts as cell-based. Here is the method: (§1) Reporter gene assays were performed as previously described (Bernauw et al., [2022]). pPRC6 and pITC variants (Table 1) were co‐transformed in E. coli MG1655 chemical competent cells using heat shock transformation. Transformant colonies of the Ah‐BarR biosensor strains were picked to inoculate wells of a transparent 96‐well plate (Greiner Bio‐One), each well filled with 200 µL of MOPS EZ Rich Defined medium (Teknova), prepared without the addition of the 5X EZ Supplement, after which the plate was incubated overnight in a ThermoMixer C (Eppendorf) at 30°C and 300 rpm. Next, a black 96‐well plate was filled with a naringenin solution prepared in ethanol (250 mg/L or 2.5 g/L), after which a Breathe‐Easy sealing membrane (Sigma‐Aldrich) was applied and the ethanol was evaporated in a ThermoMixer C (Eppendorf) at 75°C. […] Finally, the plate was sealed again using a Breathe‐Easy sealing membrane (Sigma‐Aldrich).
(§2) Plates were incubated at 30°C and 300 rpm for 40 h in a Synergy H1 microplate reader (BioTek) with measurements of OD600 and fluorescence (excitation wavelength: 588 nm, emission wavelength: 633 nm) being taken every 20 min. The gain was set to 140 for all measurements, except for the measurements with the amino acids (pools and separately), where the gain was set to 150. […] In addition, wells solely containing medium were measured as well to correct for the background signal.
(§3) Reporter expression was analyzed at t = 30 h, when all cultures had reached the stationary phase, by taking into account three subsequent time points (t–1, t, t+1). The corrected FL/OD600 value was calculated for each replicate (n = 4) as follows: FL/ODcor=FLt−1−FLmed,t−1/ODt−1−ODmed,t−1+FLt−FLmed,t/ODt−ODmed,t+FLt+1−FLmed,t+1/ODt+1−ODmed,t+1/3
(§4) Response curves were fitted to a Hill function of the shape P(M)=b+aM^n/θ^n+M^nforaβ−alanine−inducible responseb+aθ^n/θ^n+M^nforaβ−alanine−repressible response according to a previously published procedure (Landry et al., [2018]) with minor adaptations. […] Briefly, lmfit 1.1.0 was used to fit all replicates of a response curve to the appropriate Hill function using the Levenberg‐Marquardt algorithm (Moré, [1978]; Newville et al., [2016]). […] The dynamic range was estimated as μ=a/b .

Data set [4] deals with Ah‐BarR M103T (P ah‐barR promoter, mKate2 reporter) (Acidianus hospitalis, UniProt F4B5V3, M103T). The data set is described as follows: cell-based. In kind it is cell-based. As to conditions: BS1 M103T; 5 mM glutamine, 20 mg/L naringenin (Figure A7). Here is the method:
as §1, §2, §3, §4

Data set [5] concerns Ah-BarR WT (Acidianus hospitalis). The experiment in a line: EMSA. As to conditions: no beta-alanine; octamer concentration; 20 mM Tris-HCl pH 8.0, 50 mM NaCl, 0.4 mM EDTA, 0.1 mM DTT, 1 mM MgCl2, 12.5% glycerol, 25 ug/mL salmon sperm DNA, 25 min at 37 C (EMSA). A general note: In EMSA bound probe runs differently from free probe, usually more slowly.
For data set [6], the system named is T2, Ah-BarR WT (Acidianus hospitalis), ORF:d4ab5e4b. The data set is described as follows: in-gel Cu-OP footprinting. As to conditions: 20 mM Tris-HCl pH 8.0, 50 mM NaCl, 0.4 mM EDTA, 0.1 mM DTT, 1 mM MgCl2, 12.5% glycerol, 25 ug/mL salmon sperm DNA, 25 min at 37 C (EMSA).

Chain of Ah‐BarR M103N (P ah‐barR promoter, mKate2 reporter) (F4B5V3 entry or part of it M103N): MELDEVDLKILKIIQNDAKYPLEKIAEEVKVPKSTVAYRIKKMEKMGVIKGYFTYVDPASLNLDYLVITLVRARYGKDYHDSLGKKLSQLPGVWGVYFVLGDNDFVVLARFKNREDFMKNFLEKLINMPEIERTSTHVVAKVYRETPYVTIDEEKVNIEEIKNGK
Chain of Ah‐BarR M103T (P ah‐barR promoter, mKate2 reporter) (F4B5V3 entry or part of it M103T): as the sequence (F4B5V3 entry or part of it M103N) above, with N103T counted along it

By Kd is commonly meant the equilibrium constant for the complex coming apart. A higher Kd goes with a looser complex. Take “CTTTAAGTCTACCTCGTCTAGCTCCATAATATATAATTAGAAGAGGTAATTTAAACCTTATACATTTTATCGACGAATAAGTTGAATATACAACTAAATAAAAAGGGATTATCTTGGAAATTATACAGAGACATTCCAAAGCAAGATTTAAACTATTGTACTTTTTACAATAGCTGTCCTAAAATACTTAAATTCCGTCTAAACTACTAGTATCGCATGGATGAAGATGTCGTTAAATTGGTTAAAGAACATACTTTCGGAACTTGGAAAGTTC (double strand) [WT promoter 274 bp]”: the binding result in data set [1] and in data set [2] was “binds” throughout. Besides, in data set [2], the Kd came to 12 nM. As to “CTTTAAGTCTACCTCGTCTAGCTCCATAATATATAATTAGAAGAGGTAATTTAAACCTTATACATTTTATCGACGAATAAGTTGAATATACAATTTAATAAAAAGGGATTATCTTGGAAATTATATTTAGACATTCCAAAGCAAGATTTAAACTATTGTACTTTTTACAATAGCTGTCCTAAAATACTTAAATTCCGTCTAAACTACTAGTATCGCATGGATGAAGATGTCGTTAAATTGGTTAAAGAACATACTTTCGGAACTTGGAAAGTTC (double strand) [Promoter mutant 2 (mut2) 274 bp]”, the Kd in data set [2] was 36 nM.

In the case of `NC(=O)CC[C@H](N)C(=O)O` [glutamine], the “glutamine response of reporter expression” value in data set [3] and in data set [4] was “did not lead to the acquisition of a glutamine‐specific response” each time. Take “CTTTAAGTCTACCTCGTCTAGCTCCATAATATATAATTAGAAGAGGTAATTTAAACCTTATACATTTTATCGACGAATAAGTTGAATATACAATTTAATAAAAAGGGATTATCTTGGAAATTATATTTAGACATTCCAAAGCAAGATTTAAACTATTGTACTTTTTATTTTAGCTGTCCTAAAATACTTAAATTCCGTCTAAACTACTAGTATCGCATGGATGAAGATGTCGTTAAATTGGTTAAAGAACATACTTTCGGAACTTGGAAAGTTC (double strand) [Promoter mutant 3 (mut3) 274 bp]”: in data set [2], the binding result is “no binding”. On to “CTTTAAGTCTACCTCGTCTAGCTCCATAATATATAATTAGAAGAGGTAATTTAAACCTTATACATTTTATCGACGAATAAGTTGAATATACAATTTAATAAAAAGGGATTATCTTGGAAATTATACAGAGACATTCCAAAGCAAGATTTAAACTATTGTACTTTTTACAATAGCTGTCCTAAAATACTTAAATTCCGTCTAAACTACTAGTATCGCATGGATGAAGATGTCGTTAAATTGGTTAAAGAACATACTTTCGGAACTTGGAAAGTTC (double strand) [Promoter mutant 1 (mut1) 274 bp]”, for which, in data set [2], the dissociation constant Kd came to 31 nM. In turn, WT promoter 274 bp registered a Kd in data set [5] of 12 nM. Regarding “CCTTATACATTTTATCGACGAATAAGTTGAATATACAACTAAATAAAAAGGGATTATCTTGGAAATTATACAGAGACATTCCAAAGCAAGATTTAAACTATTGTACTTTTTACAATAGCTGTCCTAAAATACTTAAATTCCGTCTAAACTACTAGTATCGCATGGATG (double strand) [WT promoter short 168 bp]”, the binding result in data set [6] is recorded as “binds”.
